Patent US20160311934A1, “HYDROXYALKYL STARCH DERIVATIVES AS REACTANTS FOR COUPLING TO THIOL GROUPS” (FRESENIUS KABI DEUTSCHLAND GMBH, priority 2013, published 2016)
Substitutions are numbered along the chain they refer to. Names may count otherwise.

Legend:
[1] = biological target: T1, Interleukin 1 receptor type I (Homo sapiens, UniProt P14778); assay: SPR binding affinity on a BIAcore system; conditions: immobilized receptor on CM3 chip, 1:1 binding stoichiometry
T1 construct: purchased R&D Systems
T1 sequence (P14778 18-569): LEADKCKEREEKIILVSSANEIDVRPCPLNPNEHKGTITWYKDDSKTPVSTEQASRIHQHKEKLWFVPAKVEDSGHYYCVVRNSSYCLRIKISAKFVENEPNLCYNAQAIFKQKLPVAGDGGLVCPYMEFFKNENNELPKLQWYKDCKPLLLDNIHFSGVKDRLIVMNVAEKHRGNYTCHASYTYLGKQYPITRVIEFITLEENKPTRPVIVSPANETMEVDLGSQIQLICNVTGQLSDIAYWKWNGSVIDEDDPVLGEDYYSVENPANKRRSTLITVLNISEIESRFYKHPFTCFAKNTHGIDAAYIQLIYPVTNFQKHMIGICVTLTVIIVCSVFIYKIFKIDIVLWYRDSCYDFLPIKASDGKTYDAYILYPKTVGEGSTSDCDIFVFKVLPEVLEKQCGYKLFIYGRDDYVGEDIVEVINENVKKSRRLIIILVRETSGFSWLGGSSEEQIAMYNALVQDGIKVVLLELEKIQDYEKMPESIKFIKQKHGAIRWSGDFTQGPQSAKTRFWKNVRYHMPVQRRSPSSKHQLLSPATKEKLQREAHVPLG
Description: Conjugates of L12-HES with IL1RA were tested for binding affinity to its natural binding partner using SPR on a BIAcore system. Interleukin 1 receptor type I (R&D Systems) was immobilized on the chip surface and the kinetic binding parameters were determined for the conjugate in comparison to the unmodified protein (chip: CM3, immobilization: 950 RU, flow rate 30 μl/min, association 180 s, dissociation 900 s, regeneration: 6 s with 5 mM glycine buffer, pH 2.0). The curves were analyzed by assuming a 1:1 binding stoichiometry.

peptidyl prolyl bonds = assay: Prolyl isomerase activity assay; assay type: biochemical
Description: Prolylisomerases like SlyD catalyze the trans to cis isomerization of peptidyl prolyl bonds. The prolyl isomerase activities of SlyD and the L12-HES-SlyD conjugate were measured by a prolyl isomerase activity assay according to Zoldak et al. (2009, Biochemistry, 48, 10423-10436). The rate constant of the cis to trans isomerization of the prolyl bond was determined using Origin 8.1. […] The catalytic activity of unmodified SlyD is 5.6·10^6 M^−1s^−1 and the activity of the L12-HES-SlyD conjugate is 6.0·10^6 M^−1s^−1 (107% of the activity of unconjugated SlyD). The higher activity of the conjugate compared to unmodified SlyD is within the error of the assay.

[2] = Stability tests of HES-protein conjugates at different pH, 40° C., 20 days; assay type: physicochemical; conditions: protein conjugate 1 mg/ml
Description: For stability tests at pH 4.0, 5.5, 7.0 and 8.0, the conjugates were diluted into final buffer conditions of 20 mM acetate (pH 4.0 and 5.5) or 10 mM phosphate (pH 7.0 and 8.0), 0.5 mM ETDA, 154 mM NaCl to a final concentration of 1 mg/ml. The conjugates were stored at 40° C. for 20 days and analyzed by RP-HPLC (example for Ubi is shown in FIG. 3), SEC (as described in example C1) or SDS-PAGE (as described in example C1).

unmodified IL1RA: interleukin-1 receptor antagonist (Kineret®), unconjugated
association rate ka [1]: 588000 M⁻¹ s⁻¹

IL1RA that is conjugated to HES via N-terminal coupling: IL1RA that is conjugated to HES via N-terminal coupling
association rate ka [1]: 263000 M⁻¹ s⁻¹

B1: unmodified SlyD: SlyD D101C, sensitive to lysis protein D, a prolylisomerase, unconjugated (protein, UniProt P0A9K9 1-196, looked up, variant D101C)
FKBP-type peptidyl-prolyl …: MKVAKDLVVSLAYQVRTEDGVLVDESPVSAPLDYLHGHGSLISGLETALEGHEVGDKFDVAVGANDAYGQYDENLVQRVPKDVFMGVDELQVGMRFLAETCQGPVPVEITAVEDDHVVVDGNHMLAGQNLKFNVEVVAIREATEEELAHGHVHGAHDHHHDHDHDGCCGGHGHDHGHEHGGEGCCGGKGNGGCGCH
catalytic activity (prolyl isomerization) (peptidyl prolyl bonds): 5.6e+06 M⁻¹ s⁻¹

B2: L12 X12 SlyD (conjugate, UniProt P0A9K9 1-196, looked up)
FKBP-type peptidyl-prolyl …: B1 FKBP-type peptidyl-prolyl … with C101D
modifications: HES X12 via linker L12
catalytic activity (prolyl isomerization) (peptidyl prolyl bonds): 6e+06 M⁻¹ s⁻¹
% of the activity of unconjugated SlyD (peptidyl prolyl bonds; relative to unconjugated SlyD): 107%
conjugate degradation after 20 days (%) pH 7.0 ([2]; 10 mM phosphate pH 7.0, 40° C.): 3.4%
conjugate degradation after 20 days (%) pH 8.0 ([2]; 10 mM phosphate pH 8.0, 40° C.): 9.0%
conjugate degradation after 20 days (%) pH 5.5 ([2]; 20 mM acetate pH 5.5, 40° C.): 1.4%
